Here are results for 3 molecules from patent US20140004580A1, “MODIFIED PHOTOSYNTHETIC MICROORGANISMS FOR PRODUCING LIPIDS” (Matrix Genetics, LLC, priority 2010, published 2014).

Type in all cases: biochemical, Synechococcus elongatus PCC7942
Data set [1] concerns purified h6-orf0489. The data set can be described thus: orf0489 aldehyde dehydrogenase activity assay with nonyl-aldehyde (NAD(P)H production at 340 nm). Particulars: nonyl-aldehyde 1 mM; h6-orf0489 0.3, 1.5 or 6 μM; NAD+ or NAD(P)+ 1 mM; 30 minutes. The method, then:
The reaction was started by mixing together a fatty aldehyde substrate, purified h6-orf0489 and NAD(P)+. The progress of the reaction was assessed by measuring the production of NAD(P)H at 340 nm using the SpectraMax M5. […] Nonyl-aldehyde and either NAD+ or NAD(P)+ were used at 1 mM. Measurements were taken every 30 seconds for 30 minutes.
To directly test whether orf0489 is an aldehyde dehydrogenase, a histidine-tagged version of this protein (h6-orf0489) was overexpressed in E. coli and purified using metal affinity chromatography. The purified protein was then employed in an in vitro reaction using a fatty aldehyde as a substrate.
The reaction was started by mixing together a fatty aldehyde substrate (nonyl-aldehyde at 1 mM), various concentrations of purified h6-orf0489 (0.3, 1.5 or 6 μM final concentration), and NAD+ or NAD(P)+ at 1 mM. The progress of the reaction was assessed by measuring the production of NAD(P)H at 340 nm using the SpectraMax M5; measurements were taken every 30 seconds for 30 minutes.

Data set [2] concerns the target h6-0489 (histidine-tagged orf0489 aldehyde dehydrogenase) (Synechococcus elongatus, UniProt Q31QZ8). Kind of data set: Enzymatic characterization of h6-0489 with fatty aldehydes of varying chain length (NADH production at 340 nm). The method, then: (§1) The protein eluted off of SEC as a single monodisperse peak. The enzymatic characteristics of purified protein were then measured in vitro using fatty aldehydes of varying chain length (4-16) as substrate. In this assay, h6-0489 was incubated with 150 mM NaCl, 50 mM Tris, pH 7.5, 0.05% IGEPAL, 1 mM NAD+ and varying concentrations of the fatty aldehyde substrate being tested. The reaction was carried out in a cuvette with a 1 cm pathlength, and the progress was assessed by measuring the production of NADH at 340 nm using a SpectraMax M5 spectrophotometer. Measurements were taken every second for 2-5 minutes, and the initial velocities of each reaction were determined in the linear range. The A340 was converted into amount of NADH formed using the molar extinction coefficient for NADH (6200 M^−1 cm^−1). The Michaelis constants Km and Vmax were determined by fitting the data using non-linear progression in Prism to the equation Y=(Vmax*X)/(Km+X), where X=substrate concentration and Y=velocity. Kcat was determined from the equation Vmax=Kcat*Et, where Et=the concentration of h6-0489. Data are presented in Table C as averages of at least three different experiments, with errors presented as standard deviation.

Substrate in data set [3]: CCCC=O
Described as above. The conditions noted are these: other: aldehyde as substrate, 1 mM NAD+, pH 7.5, average of at least three experiments. The method, then: as §1

Substrate in data set [4]: CCCCCC=O
The data set is described as above. The conditions noted are these: other: aldehyde as substrate, 1 mM NAD+, pH 7.5, average of at least three experiments. How it is done: as §1

Substrate in data set [5]: CCCCCCCC=O
The description is as above. Particulars: other: aldehyde as substrate, 1 mM NAD+, pH 7.5, average of at least three experiments. The method, then:
as §1

Substrate in data set [6]: CCCCCCCCCC=O
The data set is described as above. Particulars: other: aldehyde as substrate, 1 mM NAD+, pH 7.5, average of at least three experiments. The method, then: as §1

Substrate in data set [7]: CCCCCCCCCCCC=O
Described as above. The conditions noted are these: other: aldehyde as substrate, 1 mM NAD+, pH 7.5, average of at least three experiments. The method, then: as §1

In the case of `CCCCCCCCC=O` [nonyl-aldehyde], in data set [1], the “utilization as substrate (increased NAD(P)H production relative to controls)” value is recorded as “utilizes nonyl-aldehyde as a substrate”.
Regarding hexadecenal, in data set [2] (aldehyde as substrate, 1 mM NAD+, 150 mM NaCl, 50 mM Tris pH 7.5, 0.05% IGEPAL, average of at least three experiments), the “kcat (AVE)” value stood at 10.8 s⁻¹. In addition, in data set [2] (aldehyde as substrate, 1 mM NAD+, pH 7.5, average of at least three experiments, read-out: (μM) (AVE) [Km]), the Km – broadly, the substrate concentration at which the rate is half of its maximum – is 38.1 µM. For the same molecule, the “oxidation of the aldehyde to a free fatty acid by h6-0489 in vitro” value in data set [2] (in vitro) is listed as “able to oxidize hexadecenal to a free fatty acid”.

B1: h6-0489 (histidine-tagged orf0489 aldehyde dehydrogenase) (Synechococcus elongatus PCC 7942 = FACHB-805) (protein)
chain: MTAVVLPAAAETLAALQATFDRGDTRTLAFRLARLQDLAKLVADNEAELLQALASDLRKPALEAYASEIYFVRDQIKLTCKHLRRWMQPEKQSISLMQQPGQAYRQAEPLGVVLIIGPWNYPFQLLITPLIGAIAAGNCAVLKPSELAPATSSLIQRLISDRFDPDYIRVLEGDASVSQALITQPFDHIFFTGGTAIGRKVMAAAAENLTPVTLELGGKSPCIVDTDIDLDVAARRIAWGKFFNAGQTCIAPDYLLVQRTVAEPFIEALIDNIQQFYGEDPQQSADYARIVSDRHWQRLNSLLVDGTIRHGGQVDRSDRYIAPTLITDVNWRDPILQEEIFGPLLPILIYDQLDEAIAQIRAQPKPLALYLFSRDRQVQERVLAETSAGSVCLNDTILQVGVPDAAFGGVGPSGMGGYHGKASFETFSHYKLVLKRPFWLDLALRYPPYGDKINLFRKL
As for B1, the Km came out at 189.4 µM in data set [3]; 19.3 µM in data set [4]; 15.4 µM in data set [5]; 7.6 µM in data set [6]; 11.4 µM in data set [7]. For the same molecule, the kcat (usually the number of substrate molecules converted per active site and unit of time at saturation) in data set [3] was 7.65 s⁻¹; in data set [4], 8.51 s⁻¹; in data set [5] it was 13.5 s⁻¹; in data set [6] it was 12.1 s⁻¹; in data set [7], 9.29 s⁻¹. The kcat/Km (commonly the second-order rate constant that governs catalysis at low substrate concentration) was determined as 40000 M⁻¹ s⁻¹ in data set [3]; 442000 M⁻¹ s⁻¹ in data set [4]; 875000 M⁻¹ s⁻¹ in data set [5]; 1.59e+06 M⁻¹ s⁻¹ in data set [6]; 818000 M⁻¹ s⁻¹ in data set [7].
